From article PMC10338859

Legend:
[1] = tested on: GR20, poly(GR) dipeptide repeat peptide; test: BLI; details: apparent Kd, 1:1 equilibrium fit; BLI: 10 mM Tris-HCl, 1 mM disodium EDTA, pH 8.0, 150 mM NaCl, 0.1 mg/ml BSA, 0.01% Tween-20, 25 C; RNA on streptavidin …
[2] = tested on: PR20, poly(PR) dipeptide repeat peptide; test: BLI; details: apparent Kd, 1:1 equilibrium fit; BLI: 10 mM Tris-HCl, 1 mM disodium EDTA, pH 8.0, 150 mM NaCl, 0.1 mg/ml BSA, 0.01% Tween-20, 25 C; RNA on streptavidin …

Sequence	Kd [1]	Kd [2]
GAGAAGAGAAGAGAAGAGAAGAGAA [poly(GAAGA) RNA]	3.6 nM	2.6 nM
AUAAUAUAAUAUAAUAUAAUAUAAU [poly(AUAAU) RNA]	6.1 nM	11.1 nM
